Two substances from PMC5274527 can be followed below.

Test [1] deals with human red cone opsin with C-terminal 1D4 tag (pcDNA3.1(+), without eGFP) (human) (UniProt P04000). The test can be described thus: cross-linking.
For test [2], the target named is human red cone opsin fused at its C-terminus to eGFP or mCherry (human) (UniProt P04000). The test can be described thus: FRET or BRET.
Test [3] shares this target. The experiment in a line: pulsed-interleaved excitation fluorescence cross-correlation spectroscopy.
Test [4] has the same target. The experiment in a line: fluorescence correlation spectroscopy.

In the case of “human red cone opsin with C-terminal 1D4 tag (pcDNA3.1(+), without eGFP) (from UniProt P04000 1-352) (receptor)”, the percent DSG dimers (of monomer plus dimer bands) in test [1] came out at 79%.

In test [2], “human red cone opsin fused at its C-terminus to eGFP or mCherry (from UniProt P04000 1-352) (receptor)” came in with an FRET efficiency (average) of 3.6% and an FRET efficiency (highest single-cell value) of 12%. Besides, the median fc (relative cross-correlation) in test [3] is 0.19. For the same substance, in test [4], the average molecular brightness came out at 738 cpsm and the stoichiometry N stood at 2.
